Assay results reported in patent publication US20120077964A1 (Merck Sharp & Dohme, published 2012).
Where two headings read alike, the source gives them in different places.

How the values were obtained:
Test in all cases: cell-based or functional assay
[1] = target: T1, recombinant human PCSK9, V5-, His-tagged (human, UniProt Q8NBP7 31-692, limits assumed)
[2] = target: T1, recombinant human PCSK9, V5-, His-tagged; remark: listed apart in the source
[3] = target: T1, recombinant human PCSK9, V5-, His-tagged; remark: listed apart in the source
[4] = target: T1, recombinant human PCSK9, V5-, His-tagged; remark: listed apart in the source
[5] = target: T1, recombinant human PCSK9, V5-, His-tagged; remark: listed apart in the source

T1 sequence (Q8NBP7 31-692 limits assumed): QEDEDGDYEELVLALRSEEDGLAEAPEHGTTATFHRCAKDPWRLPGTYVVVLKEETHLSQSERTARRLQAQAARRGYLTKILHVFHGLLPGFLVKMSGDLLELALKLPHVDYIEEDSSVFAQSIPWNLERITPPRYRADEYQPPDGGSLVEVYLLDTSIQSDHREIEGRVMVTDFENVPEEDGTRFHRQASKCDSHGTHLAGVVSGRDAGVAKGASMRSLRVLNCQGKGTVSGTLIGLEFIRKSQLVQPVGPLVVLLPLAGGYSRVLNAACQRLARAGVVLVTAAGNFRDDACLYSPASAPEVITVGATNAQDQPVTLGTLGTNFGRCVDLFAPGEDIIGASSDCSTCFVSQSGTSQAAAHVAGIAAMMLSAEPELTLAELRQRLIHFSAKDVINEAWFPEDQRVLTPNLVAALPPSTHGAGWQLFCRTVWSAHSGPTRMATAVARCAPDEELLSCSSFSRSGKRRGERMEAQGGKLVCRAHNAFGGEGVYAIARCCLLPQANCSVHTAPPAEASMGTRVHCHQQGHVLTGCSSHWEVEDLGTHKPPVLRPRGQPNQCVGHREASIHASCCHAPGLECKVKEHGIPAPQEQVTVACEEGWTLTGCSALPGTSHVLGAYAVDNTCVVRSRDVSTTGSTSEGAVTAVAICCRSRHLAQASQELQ

B1: 3CX2A06 Fab (Fab, V domains shown)
VH: QVQLVQSGAEVKKPGESLKISCKGSGYSFSNFWIAWVRQMPGKGLEWMGIIDPSDSWTRYSPSFQGQVTISADKSISTAYLQWSSLKASDTAMYYCARGDGQDFDNWGQGTLVTVSS
VL: DIQMTQSPSSLSASVGDRVTITCRASQNINSYLNWYQQKPGKAPKLLIYAASSLQSGVPSRFSGSGSGTDFTLTISSLQPEDFAVYYCLQNYDLPNTFGQGTKVEIKR
- IC50: Fab titrated against PCSK9 fixed at 25 µg/ml, recovery of cellular diI-LDL uptake (Exopolar assay) [1]: 107 nM

B2: 3CX3D02 Fab (Fab, V domains shown)
VH: QVQLVQSGAEVKKPGESLKISCKGSGYSFTNSWIGWVRQMPGKGLEWMGIIYPSDSYTIYSPSFQGQVTISADKSISTAYLQWSSLKASDTAMYYCARGGGYYYALMDVWAQGTLVTVSS
VL: DIQMTQSPSSLSASVGDRVTITCRASQTISTWLNWYQQKPGKAPKLLIYAASSLQSGVPSRFSGSGSGTDFTLTISSLQPEDFATYYCLQDSSLPLTFGQGTKVEIKR
- IC50: Fab titrated against PCSK9 fixed at 25 µg/ml, recovery of cellular diI-LDL uptake (Exopolar assay) [2]: 269 nM

B3: 3CX4B08 Fab (Fab, V domains shown)
VH: QVQLVESGGGLVQPGGSLRLSCAASGFTFSNYTMNWVRQAPGKGLEWVSFISSSSSETYYADSVKGRFTISRDNSKNTLYLQMNSLRAEDTAVYYCARGYGDMVDLWGQGTLVTVSS
VL: DIELTQPPSVSVAPGQTARISCSGDSIPTYYVAWYQQKPGQAPVLVIYSDTDRPSGIPERFSGSNSGNTATLTISGTQAEDEADYYCQSFDNHGYHVFGGGTKLTVLG
- IC50: Fab titrated against PCSK9 fixed at 25 µg/ml, recovery of cellular diI-LDL uptake (Exopolar assay) [3]: 127 nM

B4: 1CX1G08 Fab (Fab, V domains shown)
VH: QVQLVESGGGLVQPGGSLRLSCAASGFTFSDYWVSWVRQAPGKGLEWVSFISYDGSSTYYADSVKGRFTISRDNSKNTLYLQMNSLRAEDTAVYYCARTYFEGVDVWGQGTLVTVSS
VL: DIELTQPPSVSVAPGQTARISCSGDNIGTYYVHWYQQKPGQAPVLVIYDDSNRPSGIPERFSGSNSGNTATLTISGTQAEDEADYYCGTWDNTSFNLVFGGGTKLTVLG
- IC50: Fab titrated against PCSK9 fixed at 25 µg/ml, recovery of cellular diI-LDL uptake (Exopolar assay) [4]: 267 nM

B5: 3BX5C01 Fab (Fab, V domains shown)
VH: QVQLVQSGAEVKKPGESLKISCKGSGYSFTSYGISWVRQMPGKGLEWMGMIDPSDSFTTYSPSFQGQVTISADKSISTAYLQWSSLKASDTAMYYCARGYYFTYALQPMDHWGQGTLVTVSS
VL: DIELTQPPSVSVAPGQTARISCSGDNLRDYIVHWYQQKPGQAPVLVIYDDSNRPSGIPERFSGSNSGNTATLTISGTQAEDEADYYCGFDNGGDIDVFGGGTKLTVLG
- IC50: Fab titrated against PCSK9 fixed at 25 µg/ml, recovery of cellular diI-LDL uptake (Exopolar assay) [5]: 1250 nM
